Measured values taken from patent US20240309099A1 (SYSTIMMUNE, published 2024).

B1: SI-1X26 (bispecific antibody)
heavy: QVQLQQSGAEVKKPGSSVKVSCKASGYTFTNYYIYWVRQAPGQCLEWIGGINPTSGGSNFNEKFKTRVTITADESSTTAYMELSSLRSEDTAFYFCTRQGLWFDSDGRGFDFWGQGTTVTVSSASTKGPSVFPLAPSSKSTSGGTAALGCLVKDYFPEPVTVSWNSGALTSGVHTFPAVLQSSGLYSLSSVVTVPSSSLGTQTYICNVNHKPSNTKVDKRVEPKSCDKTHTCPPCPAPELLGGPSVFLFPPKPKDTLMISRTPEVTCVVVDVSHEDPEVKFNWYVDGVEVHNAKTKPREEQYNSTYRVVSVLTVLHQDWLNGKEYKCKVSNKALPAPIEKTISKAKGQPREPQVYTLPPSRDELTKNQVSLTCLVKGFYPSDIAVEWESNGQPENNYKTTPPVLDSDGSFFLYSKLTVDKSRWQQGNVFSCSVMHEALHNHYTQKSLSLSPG
light: DIQMTQSPSSLSASVGDRVTITCRSSQNIVHSNGNTYLDWYQQTPGKAPKLLIYKVSNRFSGVPSRFSGSGSGTDFTFTISSLQPEDIATYYCFQYSHVPWTFGCGTKLQITRTVAAPSVFIFPPSDEQLKSGTASVVCLLNNFYPREAKVQWKVDNALQSGNSQESVTEQDSKDSTYSLSSTLTLSKADYEKHKVYACEVTHQGLSSPVTKSFNRGECGGGGSGGGGSGGGGSQVQLQESGGGLVKPGGSLSLSCAASGFTFSSYWMSWVRQAPGKGLEWVANINRDGSASYYVDSVKGRFTISRDDAKNSLYLQMNSLRAEDTAVYYCARDRGVGYFDLWGRGTLVTVSSGGGGSGGGGSGGGGSQSALTQPASVSGSPGQSITISCTGTSSDVGGYNFVSWYQQHPGKAPKLMIYDVSDRPSGVSDRFSGSKSGNTASLIISGLQADDEADYYCSSYGSSSTHVIFGGGTKVTVL
notes: scFv on the C-terminus of the light chain; also called EGFRxHER3 bispecific antibody; nimotuzumab-based bispecific antibody
B2: SI-1X4 (bispecific antibody)
heavy: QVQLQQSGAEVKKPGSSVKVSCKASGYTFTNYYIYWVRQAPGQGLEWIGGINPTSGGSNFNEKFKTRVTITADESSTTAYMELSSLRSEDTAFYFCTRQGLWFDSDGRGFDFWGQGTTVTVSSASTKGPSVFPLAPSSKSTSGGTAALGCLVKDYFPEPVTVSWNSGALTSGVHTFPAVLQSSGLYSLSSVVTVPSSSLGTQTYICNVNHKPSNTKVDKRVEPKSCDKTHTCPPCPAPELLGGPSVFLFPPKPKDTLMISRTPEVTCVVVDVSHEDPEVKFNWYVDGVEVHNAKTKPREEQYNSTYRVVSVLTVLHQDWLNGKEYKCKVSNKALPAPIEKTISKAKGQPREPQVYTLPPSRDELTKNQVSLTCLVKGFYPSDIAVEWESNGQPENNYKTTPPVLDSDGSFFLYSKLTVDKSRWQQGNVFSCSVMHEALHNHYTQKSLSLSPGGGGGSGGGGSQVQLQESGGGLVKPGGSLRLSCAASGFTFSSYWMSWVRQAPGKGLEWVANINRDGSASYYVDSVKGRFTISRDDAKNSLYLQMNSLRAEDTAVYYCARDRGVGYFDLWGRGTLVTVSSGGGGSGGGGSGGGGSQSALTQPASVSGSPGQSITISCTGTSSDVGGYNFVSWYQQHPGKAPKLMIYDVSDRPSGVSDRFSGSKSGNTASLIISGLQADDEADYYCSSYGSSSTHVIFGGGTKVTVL
light: DIQMTQSPSSLSASVGDRVTITCRSSQNIVHSNGNTYLDWYQQTPGKAPKLLIYKVSNRFSGVPSRFSGSGSGTDFTFTISSLQPEDIATYYCFQYSHVPWTFGQGTKLQITRTVAAPSVFIFPPSDEQLKSGTASVVCLLNNFYPREAKVQWKVDNALQSGNSQESVTEQDSKDSTYSLSSTLTLSKADYEKHKVYACEVTHQGLSSPVTKSFNRGEC
notes: Tetravalent IgG-scFv: anti-EGFR Fab with nimotuzumab variable regions, anti-HER3 scFv at the C-terminus of the heavy chain; also called EGFRxHER3 bispecific antibody; nimotuzumab-based bispecific antibody

Columns and labels:
[1] = biological target: T1, His-tagged human EGFR (expressed/purified in-house) (human, UniProt P00533 25-645, limits assumed); experiment: BLI (Octet384), antibody captured on AHC tips, His-tagged EGFR 0-100 nM in solution, global 1:1 fit
T1 construct: Made in-house; also called ErbB1; HER1; not shown: His tag

[2] = biological target: human HER3 (purchased from Acro Bio) (human, UniProt P21860 20-643); experiment: BLI (Octet384), antibody captured on AHC tips, HER3 (Acro Bio) 0-100 nM in solution, global 1:1 fit

Kd [1] [nM] | Response [1] | koff [1] [s⁻¹] | kon [1] [M⁻¹ s⁻¹] | Kd [2] [nM] | Response [2] | koff [2] [s⁻¹] | kon [2] [M⁻¹ s⁻¹] | Binder
11.4 | 0.194 | 0.000627 | 55100 | 151 | 0.294 | 0.0308 | 204000 | B1
23.8 | 0.171 | 0.00171 | 71600 | 156 | 0.264 | 0.0281 | 180000 | B2
